Source: patent US20170224769A1

Molecular target: high mobility group box 1 protein (HMGB1) (Homo sapiens (Human)) (UniProt P09429)
Test: SPR (Reichert SR7500DC), HMGB1 coated on CMDH chip

Sequence of UniProt P09429 (P09429 whole entry, form in doubt): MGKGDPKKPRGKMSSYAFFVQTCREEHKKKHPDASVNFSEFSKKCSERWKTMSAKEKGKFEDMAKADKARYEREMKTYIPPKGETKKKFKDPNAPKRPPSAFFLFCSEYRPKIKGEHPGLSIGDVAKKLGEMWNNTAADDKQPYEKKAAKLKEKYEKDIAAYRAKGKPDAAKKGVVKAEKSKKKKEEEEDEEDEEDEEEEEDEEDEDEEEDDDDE

With “rHMGB1A-his6 (high mobility group box 1 A domain, C-terminal six histidines) (from UniProt P09429 1-164)” the Kd was 2800 nM, the koff was 0.00394 s⁻¹ and the kon was 1400 M⁻¹ s⁻¹.
Substance “rTAT-HMGB1A-his6 (fusion of the TAT peptide and the A box domain of HMGB1, C-terminal six histidines) (from UniProt P04608 49-57; P09429 1-164)” has a Kd of 75.1 nM, a koff of 0.000691 s⁻¹ and a kon of 9200 M⁻¹ s⁻¹.
